Experimental data published in publication PMC8978092 (Cell, 2022).

Experiments:
crystal structure = target: the molecule itself; test: crystal structure
cryo-EM structure = target: the molecule itself; test: cryo-EM structure

| Protein | stoichiometry N (crystal structure) | stoichiometry N (cryo-EM structure) |
| --- | --- | --- |
| Enterococcus pore-forming toxin 4 (Epx4), residues 32-335, C-terminal His6 (natural protein) SEDNIIGTTTQEIDEHGNVKTIITVKNQQIESYTSTDSGTAKNRSTLTVNANFLNDKYSNELTTILSLNGFIPSGRKFIFPKNNTLKGEMLWPQRYSTAVYNIPLDKSVKITNSTPDNTIRSKEVSNSITYGIGGGIKMEGKQPGANLDANAAITKTISYQQPDYETAKTTSTVTGVNWNTNFTETRDGYTRNSWNPVYGNQMFMYGRYTSNIRNNFTPDYQLSSLITSGFSPSYGLVLRAPKDVKKSRIKVVFARRSETYQQNWDGLNWWGRNFYDTKNPDSLSKVTLTFELDWQNHRVTFIELEHHHHHH | 8 |  |
| Enterococcus pore-forming toxin 1 (Epx1), residues 24-345, C-terminal His6 (natural protein) DVQVFADNPVLGTEVTFEKDENGRIVKIISKNQYRITIYNSVDAGDTPNDASVSLDVDFIDDKNSGEMGAVASINTFIPSGLRYVEGYKYKGVTNPIYKNLSAGMLWPKKYRVEVVNIPIDQATKIITATPNNNIKEKQVSDTISYGFGGSVSADGKKPGGSIEANLAYTKTTTYDQPDYETSQIKKTTKEAVWDTSFVETRDGYTPNSWNPVYGNQMFMRGRYSNVSPIDNIKKGGEVSSLISGGFSPKMGVVLASPNGTKKSQFVVRVSRMSDMYIMRWSGTEWGGENEINQNVPKEYNALMYEDVKFEIDWEQRTVRTILEHHHHHH |  | 8 |
